Experimental data from patent US20220033501A1 (SHANGHAI PHARMAEXPLORER, published 2022).
Residue numbers refer to the chain shown, from its start. One block for each binder: values may come before it.

Legend:
[1] = molecular target: T1, human TIM-3 on CHOK1 stable cell line (CHOK1-hTIM-3) (human, UniProt Q8TDQ0 22-301); assay: FACS, CHOK1-hTIM-3 cells, 40 nM antibody
T1 sequence: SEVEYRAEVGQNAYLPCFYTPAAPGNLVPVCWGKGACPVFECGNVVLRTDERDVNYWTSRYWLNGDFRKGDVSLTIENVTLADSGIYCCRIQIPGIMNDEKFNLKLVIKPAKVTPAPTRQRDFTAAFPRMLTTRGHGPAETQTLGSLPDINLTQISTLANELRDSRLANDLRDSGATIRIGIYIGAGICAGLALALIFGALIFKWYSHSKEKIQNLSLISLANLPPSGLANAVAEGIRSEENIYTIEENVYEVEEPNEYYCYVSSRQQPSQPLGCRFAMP

[2] = molecular target: T2, monkey TIM-3 on CHOK1 stable cell line (CHOK1-cTIM-3) (monkey); assay: FACS, CHOK1-cTIM-3 cells, 0.064 nM antibody
T2 chain: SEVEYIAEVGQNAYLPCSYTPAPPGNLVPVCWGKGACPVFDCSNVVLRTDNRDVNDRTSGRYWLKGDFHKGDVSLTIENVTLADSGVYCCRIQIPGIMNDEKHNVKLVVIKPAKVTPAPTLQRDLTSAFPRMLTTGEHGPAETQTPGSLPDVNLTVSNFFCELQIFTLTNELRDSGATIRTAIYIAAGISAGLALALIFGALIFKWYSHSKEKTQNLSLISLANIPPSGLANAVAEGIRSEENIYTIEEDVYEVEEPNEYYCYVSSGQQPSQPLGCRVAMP

Mean fluorescence intensity [1]: 221
Mean fluorescence intensity [2]: 35.4
B1: 34B6D8 fully human TIM-3 antibody (human IgG4, kappa) (antibody, V domains shown)
VH: EVQLVESGGGLVQPGGSLRLSCAASGFTFSTYWMTWVRQAPGKRLEWVANIKQGGGDKYYVDSVKGRFTISTDNAKNSLYLQMNSLRAEDTAVYYCARGSNWFDPWGQGTLVTVSS
VL: EIVMTQSPATLSMSPGERATLSCRASQSVYDNLAWYQQKPGQAPRLLIYGASTRATGIPARFSGSGSGTEFTLTISSLQSEDFALYYCQQYTHWPITFGQGTRLEIK

Mean fluorescence intensity [1]: 264
Mean fluorescence intensity [2]: 42.3
B2: 39E5H1 fully human TIM-3 antibody (human IgG4, kappa) (antibody, V domains shown)
VH: B1 VH with T31S, T35S, R44G, Q53R, G56S, D57E, K58R, T72G, L79V
VL: B1 VL with I2T, T10I, M13V, D31S, P40L, G50D, L85V, T92N, H93N
